From US20140363428A1 (Chugai, published 2014) come the findings set out here.

B1: IgG1-F1138 (antibody)
heavy: QVQLQESGPGLVKPSETLSLTCAVSGHSISHDHAWSWVRQPPGEGLEWIGFISYSGITNYNPSLQGRVTISRDNSKNTLYLQMNSLRAEDTAVYYCARSLARTTAMDYWGEGTLVTVSSASTKGPSVFPLAPSSKSTSGGTAALGCLVKDYFPEPVTVSWNSGALTSGVHTFPAVLQSSGLYSLSSVVTVPSSSLGTQTYICNVNHKPSNTKVDKKVEPKSCDKTHTCPPCPAPELRGGPKVFLFPPKPKDTLYISRTPEVTCVVVDVSHEDPEVKFNWYVDGVEVHNAKTKPREEQYNSTYRVVSVLTVLHQDWLNGKEYKCKVSNKALPAPIEKTISKAKGQPREPQVYTLPPSRDELTKNQVSLTCLVKGFYPSDIAVEWESNGQPENNYKTTPPVLDSDGSFFLYSKLTVDKSRWQQGNVFSCSVMHEALHYHVTRKELSLSP
light: not shown
B2: IgG1-F1263 (antibody)
heavy: QVQLQESGPGLVKPSETLSLTCAVSGHSISHDHAWSWVRQPPGEGLEWIGFISYSGITNYNPSLQGRVTISRDNSKNTLYLQMNSLRAEDTAVYYCARSLARTTAMDYWGEGTLVTVSSASTKGPSVFPLAPSSKSTSGGTAALGCLVKDYFPEPVTVSWNSGALTSGVHTFPAVLQSSGLYSLSSVVTVPSSSLGTQTYICNVNHKPSNTKVDKKVEPKSCDKTHTCPPCPAPELRGGPKVFLFPPKPKDTLYISRTPEVTCVVVDVSHEDPEVKFNWYVDGVEVHNAKTKPREEQYNSTYRVVSVLTVLHQDWLNGKEYKCKVSNKALPAPIEKTISKAKGQPREPQVYTLPPSRDELTKNQVSLTCLVKGFYPSDIAVEWESNGQPENNYKTTPPVLDSDGSFFLYSKLTVDKSRWQQGNVFSCSVMHEALHYHVTKKDLSLSP
light: not shown
B3: IgG1-F1262 (antibody)
heavy: QVQLQESGPGLVKPSETLSLTCAVSGHSISHDHAWSWVRQPPGEGLEWIGFISYSGITNYNPSLQGRVTISRDNSKNTLYLQMNSLRAEDTAVYYCARSLARTTAMDYWGEGTLVTVSSASTKGPSVFPLAPSSKSTSGGTAALGCLVKDYFPEPVTVSWNSGALTSGVHTFPAVLQSSGLYSLSSVVTVPSSSLGTQTYICNVNHKPSNTKVDKKVEPKSCDKTHTCPPCPAPELRGGPKVFLFPPKPKDTLYISRTPEVTCVVVDVSHEDPEVKFNWYVDGVEVHNAKTKPREEQYNSTYRVVSVLTVLHQDWLNGKEYKCKVSNKALPAPIEKTISKAKGQPREPQVYTLPPSRDELTKNQVSLTCLVKGFYPSDIAVEWESNGQPENNYKTTPPVLDSDGSFFLYSKLTVDKSRWQQGNVFSCSVMHEALHYHVTKKELSLSP
light: not shown
B4: IgG1-F1261 (antibody)
heavy: QVQLQESGPGLVKPSETLSLTCAVSGHSISHDHAWSWVRQPPGEGLEWIGFISYSGITNYNPSLQGRVTISRDNSKNTLYLQMNSLRAEDTAVYYCARSLARTTAMDYWGEGTLVTVSSASTKGPSVFPLAPSSKSTSGGTAALGCLVKDYFPEPVTVSWNSGALTSGVHTFPAVLQSSGLYSLSSVVTVPSSSLGTQTYICNVNHKPSNTKVDKKVEPKSCDKTHTCPPCPAPELRGGPKVFLFPPKPKDTLYISRTPEVTCVVVDVSHEDPEVKFNWYVDGVEVHNAKTKPREEQYNSTYRVVSVLTVLHQDWLNGKEYKCKVSNKALPAPIEKTISKAKGQPREPQVYTLPPSRDELTKNQVSLTCLVKGFYPSDIAVEWESNGQPENNYKTTPPVLDSDGSFFLYSKLTVDKSRWQQGNVFSCSVMHEALHYHVTRKDLSLSP
light: not shown
B5: IgG1-F1157 (antibody)
heavy: QVQLQESGPGLVKPSETLSLTCAVSGHSISHDHAWSWVRQPPGEGLEWIGFISYSGITNYNPSLQGRVTISRDNSKNTLYLQMNSLRAEDTAVYYCARSLARTTAMDYWGEGTLVTVSSASTKGPSVFPLAPSSKSTSGGTAALGCLVKDYFPEPVTVSWNSGALTSGVHTFPAVLQSSGLYSLSSVVTVPSSSLGTQTYICNVNHKPSNTKVDKKVEPKSCDKTHTCPPCPAPELLGGPSVFLFPPKPKDTLYISRTPEVTCVVVDVSHEDPEVKFNWYVDGVEVHNAKTKPREEQYNSTYRVVSVLTVLHQDWLNGKEYKCKVSNKALPAPIEKTISKAKGQPREPQVYTLPPSRDELTKNQVSLTCLVKGFYPSDIAVEWESNGQPENNYKTTPPVLDSDGSFFLYSKLTVDKSRWQQGNVFSCSVMHEALHYHYTRKELSLSP
light: not shown
notes: VH3-IgG1 with Fc substitutions (EU numbering) + L(WT)-CK
B6: IgG1-F1153 (antibody)
heavy: QVQLQESGPGLVKPSETLSLTCAVSGHSISHDHAWSWVRQPPGEGLEWIGFISYSGITNYNPSLQGRVTISRDNSKNTLYLQMNSLRAEDTAVYYCARSLARTTAMDYWGEGTLVTVSSASTKGPSVFPLAPSSKSTSGGTAALGCLVKDYFPEPVTVSWNSGALTSGVHTFPAVLQSSGLYSLSSVVTVPSSSLGTQTYICNVNHKPSNTKVDKKVEPKSCDKTHTCPPCPAPELRGGPKVFLFPPKPKDVLYISRTPEVTCVVVDVSHEDPEVKFNWYVDGVEVHNAKTKPREEQYNSTYRVVSVLQVLHADWLNGKEYKCKVSNKALPAPIEKTISKAKGQPREPQVYTLPPSRDELTKNQVSLTCLVKGFYPSDIAVEWESNGQPENNYKTTPPVLDSDGSFFLYSKLTVDKSRWQQGNVFNCSVMHEALHYHVTQKSLSLSP
light: not shown
notes: as for B5
B7: IgG1-F1148 (antibody)
heavy: QVQLQESGPGLVKPSETLSLTCAVSGHSISHDHAWSWVRQPPGEGLEWIGFISYSGITNYNPSLQGRVTISRDNSKNTLYLQMNSLRAEDTAVYYCARSLARTTAMDYWGEGTLVTVSSASTKGPSVFPLAPSSKSTSGGTAALGCLVKDYFPEPVTVSWNSGALTSGVHTFPAVLQSSGLYSLSSVVTVPSSSLGTQTYICNVNHKPSNTKVDKKVEPKSCDKTHTCPPCPAPELRGGPKVFLFPPKPKDTLYISRTPEVTCVVVDVSHEDPEVKFNWYVDGVEVHNAKTKPREEQYNSTYRVVSVLQVLHADWLNGKEYKCKVSNKALPAPIEKTISKAKGQPREPQVYTLPPSRDELTKNQVSLTCLVKGFYPSDIAVEWESNGQPENNYKTTPPVLDSDGSFFLYSKLTVDKSRWQQGNVFSCSVMHEALHYHYTRKELSLSP
light: not shown
notes: as for B5
B8: IgG1-F1152 (antibody)
heavy: QVQLQESGPGLVKPSETLSLTCAVSGHSISHDHAWSWVRQPPGEGLEWIGFISYSGITNYNPSLQGRVTISRDNSKNTLYLQMNSLRAEDTAVYYCARSLARTTAMDYWGEGTLVTVSSASTKGPSVFPLAPSSKSTSGGTAALGCLVKDYFPEPVTVSWNSGALTSGVHTFPAVLQSSGLYSLSSVVTVPSSSLGTQTYICNVNHKPSNTKVDKKVEPKSCDKTHTCPPCPAPELRGGPKVFLFPPKPKDTLYISRTPEVTCVVVDVSHEDPEVKFNWYVDGVEVHNAKTKPREEQYNSTYRVVSVLQVLHADWLNGKEYKCKVSNKALPAPIEKTISKAKGQPREPQVYTLPPSRDELTKNQVSLTCLVKGFYPSDIAVEWESNGQPENNYKTTPPVLDSDGSFFLYSKLTVDKSRWQQGNVFNCSVMHEALHYHYTQKSLSLSP
light: not shown
notes: as for B5
B9: IgG1-F1151 (antibody)
heavy: QVQLQESGPGLVKPSETLSLTCAVSGHSISHDHAWSWVRQPPGEGLEWIGFISYSGITNYNPSLQGRVTISRDNSKNTLYLQMNSLRAEDTAVYYCARSLARTTAMDYWGEGTLVTVSSASTKGPSVFPLAPSSKSTSGGTAALGCLVKDYFPEPVTVSWNSGALTSGVHTFPAVLQSSGLYSLSSVVTVPSSSLGTQTYICNVNHKPSNTKVDKKVEPKSCDKTHTCPPCPAPELRGGPKVFLFPPKPKDTLYISRTPEVTCVVVDVSHEDPEVKFNWYVDGVEVHNAKTKPREEQYNSTYRVVSVLTVLHQDWLNGKEYKCKVSNKALPAPIEKTISKAKGQPREPQVYTLPPSRDELTKNQVSLTCLVKGFYPSDIAVEWESNGQPENNYKTTPPVLDSDGSFFLYSKLTVDKSRWQQGNVFNCSVMHEALHYHYTQKSLSLSP
light: not shown
notes: as for B5
B10: IgG1-F1147 (antibody)
heavy: QVQLQESGPGLVKPSETLSLTCAVSGHSISHDHAWSWVRQPPGEGLEWIGFISYSGITNYNPSLQGRVTISRDNSKNTLYLQMNSLRAEDTAVYYCARSLARTTAMDYWGEGTLVTVSSASTKGPSVFPLAPSSKSTSGGTAALGCLVKDYFPEPVTVSWNSGALTSGVHTFPAVLQSSGLYSLSSVVTVPSSSLGTQTYICNVNHKPSNTKVDKKVEPKSCDKTHTCPPCPAPELLGGPSVFLFPPKPKDTLYISRTPEVTCVVVDVSHEDPEVKFNWYVDGVEVHNAKTKPREEQYNSTYRVVSVLQVLHADWLNGKEYKCKVSNKALPAPIEKTISKAKGQPREPQVYTLPPSRDELTKNQVSLTCLVKGFYPSDIAVEWESNGQPENNYKTTPPVLDSDGSFFLYSKLTVDKSRWQQGNVFSCSVMHEALHYHYTRKELSLSP
light: not shown
notes: as for B5
B11: IgG1-F1154 (antibody)
heavy: QVQLQESGPGLVKPSETLSLTCAVSGHSISHDHAWSWVRQPPGEGLEWIGFISYSGITNYNPSLQGRVTISRDNSKNTLYLQMNSLRAEDTAVYYCARSLARTTAMDYWGEGTLVTVSSASTKGPSVFPLAPSSKSTSGGTAALGCLVKDYFPEPVTVSWNSGALTSGVHTFPAVLQSSGLYSLSSVVTVPSSSLGTQTYICNVNHKPSNTKVDKKVEPKSCDKTHTCPPCPAPELRGGPKVFLFPPKPKDVLYISRTPEVTCVVVDVSHEDPEVKFNWYVDGVEVHNAKTKPREEQYNSTYRVVSVLQPLHADWLNGKEYKCKVSNKALPAPIEKTISKAKGQPREPQVYTLPPSRDELTKNQVSLTCLVKGFYPSDIAVEWESNGQPENNYKTTPPVLDSDGSFFLYSKLTVDKSRWQQGNVFNCSVMHEALHYHVTQKSLSLSP
light: not shown
notes: as for B5
B12: IgG1-F1158 (antibody)
heavy: QVQLQESGPGLVKPSETLSLTCAVSGHSISHDHAWSWVRQPPGEGLEWIGFISYSGITNYNPSLQGRVTISRDNSKNTLYLQMNSLRAEDTAVYYCARSLARTTAMDYWGEGTLVTVSSASTKGPSVFPLAPSSKSTSGGTAALGCLVKDYFPEPVTVSWNSGALTSGVHTFPAVLQSSGLYSLSSVVTVPSSSLGTQTYICNVNHKPSNTKVDKKVEPKSCDKTHTCPPCPAPELRGGPKVFLFPPKPKDTLYISRTPEVTCVVVDVSHEDPEVKFNWYVDGVEVHNAKTKPREEQYNSTYRVVSVLTVLHQDWLNGKEYKCKVSNKALPAPIEKTISKAKGQPREPQVYTLPPSRDELTKNQVSLTCLVKGFYPSDIAVEWESNGQPENNYKTTPPVLDSDGSFFLYSKLTVDKSRWQQGNVFSCSVMHEALHYHYTRKELSLSP
light: not shown
notes: as for B5

In one experiment the target is T1, soluble human FcRn (human, UniProt P55899 24-297; P61769 21-119).
T1 construct: Heterodimer of alpha chain and beta2-microglobulin; also called hFcRn
T1 sequence (P55899 24-297 limits assumed, chain 1 of 2): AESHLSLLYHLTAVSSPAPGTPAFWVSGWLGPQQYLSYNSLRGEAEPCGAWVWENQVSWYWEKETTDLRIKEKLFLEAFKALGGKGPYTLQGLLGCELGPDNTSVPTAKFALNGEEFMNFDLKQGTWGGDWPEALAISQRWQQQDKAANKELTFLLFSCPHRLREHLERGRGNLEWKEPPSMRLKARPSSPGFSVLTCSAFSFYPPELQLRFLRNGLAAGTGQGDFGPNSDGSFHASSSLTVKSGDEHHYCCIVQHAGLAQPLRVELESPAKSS
T1 sequence (P61769 21-119 limits assumed, chain 2 of 2): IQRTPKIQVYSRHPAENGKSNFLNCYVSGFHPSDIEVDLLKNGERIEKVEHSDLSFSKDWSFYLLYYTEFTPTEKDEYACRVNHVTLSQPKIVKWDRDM
In words: SPR (Biacore), pH 7.0. A general note: Surface plasmon resonance follows binding to a sensor surface in real time, without labels.
As for B1, the Kd (commonly the free concentration of one partner at which half of the binding sites on the other are occupied at equilibrium, for simple one-to-one binding) amounted to 170 nM.

In the case of B2, the Kd came out at 120 nM.

Turning to B3, binding was put at a Kd of 130 nM.

As for B4, binding was characterised by a dissociation constant (Kd) of 140 nM.

The target in a further experiment is T2, soluble human FcRn (heterodimer of FcRn alpha chain and beta2-microglobulin) (human, UniProt P55899 24-297; P61769 21-119).
T2 construct: Expressed in HEK293H and purified on IgG Sepharose; also called hFcRn
T2 sequence (P55899 24-297 limits assumed, chain 1 of 2): as the sequence (P55899 24-297 limits assumed, chain 1 of 2) above
T2 sequence (P61769 21-119 limits assumed, chain 2 of 2): as the sequence (P61769 21-119 limits assumed, chain 2 of 2) above
In words: SPR Biacore T100, antibody captured via protein L, hFcRn analyte, pH 7.0, 25 C.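 Note: KD derived from kinetic ka and kd fits of sensorgrams, CM4 sensor chip, sodium phosphate NaCl Tween20 running buffer, buffer-only injection used as reference.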
Method: An appropriate amount of protein L (ACTIGEN) was immobilized onto Sensor chip CM4 (GE Healthcare) by the amino coupling method, and the chip was allowed to capture an antibody of interest. Then, diluted FcRn solutions and running buffer (as a reference solution) were injected to allow human FcRn to interact with the antibody captured on the sensor chip. The running buffer used comprised 50 mmol/l sodium phosphate, 150 mmol/l NaCl, and 0.05% (w/v) Tween20 (pH 7.0). FcRn was diluted using each buffer. The chip was regenerated using 10 mmol/l glycine-HCl (pH 1.5). Assays were carried out exclusively at 25 degrees C. The association rate constant ka (1/Ms) and dissociation rate constant kd (1/s), both of which are kinetic parameters, were calculated based on the sensorgrams obtained in the assays, and KD (M) of each antibody for human FcRn was determined from these values. Each parameter was calculated using Biacore T100 Evaluation Software (GE Healthcare).
The molecule B5 displayed a Kd of 210 nM. That is a sub-micromolar value.

With B6, binding was characterised by a dissociation constant (Kd) of 48 nM.

Molecule B7 yielded a Kd of 76 nM. This Kd is about 1.6-fold higher than that of the molecule before.

B8: the Kd was 74 nM.

As to B9, binding was characterised by a dissociation constant (Kd) of 250 nM.

B10 came in with a Kd of 72 nM.

B11 showed a Kd of 13 nM.

B12 had a Kd of 240 nM. This Kd lies about 18-fold higher than the previous one.
